Data: US20030130324A1, “METHOD FOR PREVENTING OR CONTROLLING CATARACT” (priority 1993, published 2003)

How the values were obtained:
lens epithelial explants [1] = assay: Influence of TGFβ alone and in combination with FGF on lens epithelial explants (standard method); format: cell-based, rat; details: TGFβ 20 ng/ml, up to 5 days culture; summary of Example 1
Method: Lens explants were prepared from both postnatal and adult rats and changes during 5 days culture with growth factor(s) were monitored by light and electron microscopy, immunolocalisation of laminin, heparan sulphate proteoglycan and fibre-specific crystallins, and crystallin ELISAs.
Each experiment involved culturing explants for up to 5 days without added growth factors (controls), with TGFβ, with a combination of TGFβ and FGF (TGFβ/FGF), or with FGF alone. FGF is another growth factor that influences lens cell behaviour (Chamberlain and McAvoy, 1989; McAvoy et al., 1991). In some experiments, explants were prepared by a standard method used in our laboratory in which the adhering capsule serves as the substratum for the cells. In others, explants were inverted onto a laminin substratum. The latter method allows cell attachment, spreading and migration to be monitored as well as providing good visualisation of individual cells. […]
Explants used for immunofluorescent localisation were collected at the end of the culture period, fixed in Carnoy's fixative for 20 min at room temperature, transferred to 70% ethanol, then covered with a drop of melted 2.5% agar, before dehydrating in ethanol and embedding in paraffin. […] Controls for non-specific fluorescence were included routinely, that is, sections were treated with non-immune rabbit serum instead of specific antibody. […]

lens epithelial explants [2] = assay: Lens epithelial explants cultured on laminin substratum with TGFβ and/or FGF; format: cell-based, rat; details: explants from 21-day-old rats, TGFβ 20 ng/ml, in the presence or absence of FGF 2 ng/ml, 5 day culture
Method: Each experiment involved culturing explants for up to 5 days without added growth factors (controls), with TGFβ, with a combination of TGFβ and FGF (TGFβ/FGF), or with FGF alone. FGF is another growth factor that influences lens cell behaviour (Chamberlain and McAvoy, 1989; McAvoy et al., 1991). In some experiments, explants were prepared by a standard method used in our laboratory in which the adhering capsule serves as the substratum for the cells. In others, explants were inverted onto a laminin substratum. The latter method allows cell attachment, spreading and migration to be monitored as well as providing good visualisation of individual cells.
Bovine brain basic FGF was prepared and stored at −20° C. as described by Chamberlain and McAvoy (1989). Ultrapure natural human TGFβ1 was obtained from Genzyme (Cambridge, Mass.) and stored at −80° C. Working stock solutions of TGFβ and FGF were prepared (in culture medium or 1% bovine serum albumin—0.5 M NaCl in phosphate-buffered saline, respectively) and centrifuged at 10,000 g for 10 min at 4° C. just before use.
This method is as described by Hales et al (1992) Briefly, on the day before the experiment, culture dishes were pre-coated with laminin. […] Responses were monitored daily by phase contrast microscopy.

[3] = system: TGFβ-induced cataract-like changes in rat lens epithelial explants; assay: Explant study using α2-macroglobulin to inhibit TGFβ-induced cataract-like changes; format: cell-based; set-up: key to cataract-like changes: extent of spindle-like elongation: −, negligible change or reverted to predominantly epithelial morphology; +-++++, indicates extent of spindle-like elongation; +-++++, indicates extent of spindle-like elongation; +-++++, indicates extent of spindle-like elongation; +-++++, indicates extent of spindle-like elongation; †-††††, indicates extent of cell loss; †-††††, indicates extent of cell loss; †-††††, indicates extent of cell loss; †-††††, indicates extent of cell loss; o, elongation assessment was invalidated by cell loss
Method: α2-macroglobulin prepared from bovine plasma was obtained from Boehringer Mannheim Australia (Castle Hill, NSW; #602 442). Lens epithelial explants (2 per culture dish) were prepared from 21-day-old rats as described previously (See Example 1, Standard Method). α2-macroglobulin was dissolved in culture medium (defined in Example 1) at a final concentration of 400 μg/ml. The solution was sterilised by passing through a 0.22 μm filter and a portion was diluted with an equal volume of sterile medium. These solutions were equilibrated at 37° C. in 5% CO2/air before use. A stock solution containing 25 pg/10 μl TGFβ2 (Genzyme, Cambridge, Mass.) was prepared in sterile medium. Six treatment groups were then set up by replacing medium in culture dishes containing explants with 1 ml medium or 1 ml medium containing 200 or 400 μg/ml α2-macroglobulin, with or without added TGFβ, as indicated in Table 2. Explants were cultured and monitored for cataract-like changes by phase contrast microscopy. In particular, each explant was graded according to the extent of spindle-like elongation and cell death, which are characteristically observed in explants cultured with TGFβ (See Examples 1 and 2). Explants were photographed on days 3-5.

[4] = Day 4, TGFβ2 25 pg/ml, α2-MG 200 μg/ml
[5] = Day 4, TGFβ2 25 pg/ml, α2-MG 400 μg/ml
[6] = Day 5, TGFβ2 25 pg/ml, α2-MG 200 μg/ml
[7] = Day 5, TGFβ2 25 pg/ml, α2-MG 400 μg/ml

TGFβ: Ultrapure natural human TGFβ1 obtained from Genzyme (Example 1)
cell elongation in explants (lens epithelial explants [1]): extensive and rapid elongation | other TGFβ-induced cataract-like responses in explants (lens epithelial explants [1]): induced accumulation of extracellular matrix, capsule wrinkling, cell death by apoptosis and distinctive arrangements of cells | cell spreading and migration onto laminin substratum (lens epithelial explants [2]): inhibited spreading and migration

B1: α2-macroglobulin (protein, UniProt Q7SIH1 24-1510, looked up)
Alpha-2-macroglobulin: SVSGKPQYMVLVPSLLHTETPEKGCLLLSHLNETVTVSASLESVRENRSLFTDVVAEKDLFHCVSFTLPRSPTSQEVMFLTIQVKGPTQEFKKRTTVLVKNEESLVFVQTDKPIYKPEQTVKFRIVLLDESFHPLNELVPLVYVEDPKGNRIAQWQNLEVENGLQQLTFPLSSEPFQGSYKVVVQKGSGGTAEHPFTVEEFVLPKFEVQVRMPKIITILEEEVQVSVCGLYTYGKPVPGRVTMNMCRKYRNPSNCYGEESNAVCEKFSGELNNEGCFSQQVNTKIFQLKRQEFEMKIEVEAKIQEEGTEVELTGKGATEITTTITKLSFVTVDSNLRRGIPFTGKVLLVDGKGVPMPNKVIFITANEANHNSNTTTDEHGLAQFSITTTKIKGTSLSIRVKYKDHSPCYGYQWLSEEHQDAYHSANLVFSRSNSFVYLEPLPRELPCGKTQTVQAHYVLKGQVLKDLKELVFYYLIMAKGGIVRSGTHTLPVEQGDMQGHFSMSVPVESDIAPVARLLIYAILPDGEVVGDSARYEIEHCLANKVGLNFSPGQSFPASQAHLRVTASPQSLCALRAVDQSVLLMRPEAELSAATVYNLLPVKDLSSFPSSVNQQEEDNEDCISHDNVYINGIMYFPVSNTNEKDMYSFLQDMGLKAFTNSKIHKPKICPQPEEHRIQHHTLLASPVRAEMGRNRDFVHFDDTSEPPTETVRKYFPETWIWDLVVVSSSGVHEVEVTVPDTITEWKAGALCLSRDTGLGLSPTASLRVFQPFFVELTMPYSVIRGEAFTLKATVLNYLPKCIRVSVQLEASPAFLAVPEKEQETYCICGNGRQTVSWAVTPKSLGNVNFTVSAEAVESQELCGSEVPVVPEHGRKDTIIKPLLVEPEGLEKEVIFNSLLCPSVDFVFLGAEDGGQVLRHFPPAAATDTAADAHDPARPGAKVSESLSLKLPPNVVEESARASFSVLGDILGSAMRNTQNLLQMPYGCGEQNMARFAPNIYVLDYLNETQQLTAELKSKAILYLNTGYQRQLLYKHFDGSYSTFGEHRGNSEGNTWLTAFVLKSFAQARGYIFIDEAHITEALTWLAQKQKSNGCFRSTGTLLNNAIKGGVDDEVTLSAYITIALLEMPLPVTHPVVRNALFCLDSAWKSAKEGSQGSHVYTKALLAYAFALAGNQERRTEVLTSLYEEAVKEDNTIHWTRPQKPRLLTEDIYQPRAPSAEVEMTAYVILAHVTAQPAPNPEDLKRATSIVKWISKQQNCQGGFSSTQDTVVALHALSRYGAATFTSARKAAQVTIQSSGTFSTKFQVENSNRLLLQQVSLPEVPGEYSMSVTGEGCVYLQTSLKYNILPKKDEFPFALEVQTLPQTCDGPKAHTSFQISLSVSYIGSRPASNMAIVDVKMVSGFIPLKPTVKMLERSNVSRTEVSNNHVLIYLDKVTNETLTLTFTVLQDIPVRDLKPAIVKVYDYYETDEFAVAEYSAPCSKDIGNA
notes: α2-macroglobulin prepared from bovine plasma, Boehringer Mannheim Australia #602 442
cataract-like changes: extent of spindle-like elongation ([3]; Day 2, TGFβ2 0 pg/ml, α2-MG 200 μg/ml): − | cataract-like changes: extent of spindle-like elongation ([3]; Day 2, TGFβ2 0 pg/ml, α2-MG 400 μg/ml): − | cataract-like changes: extent of spindle-like elongation ([3]; Day 2, TGFβ2 25 pg/ml, α2-MG 200 μg/ml): − | cataract-like changes: extent of spindle-like elongation ([3]; Day 2, TGFβ2 25 pg/ml, α2-MG 400 μg/ml): − | cataract-like changes: extent of spindle-like elongation ([3]; Day 3, TGFβ2 0 pg/ml, α2-MG 200 μg/ml): − | cataract-like changes: extent of spindle-like elongation ([3]; Day 3, TGFβ2 0 pg/ml, α2-MG 400 μg/ml): − | cataract-like changes: extent of spindle-like elongation ([3]; Day 3, TGFβ2 25 pg/ml, α2-MG 200 μg/ml): + (+-++++, indicates extent of spindle-like elongation) | cataract-like changes: extent of spindle-like elongation ([3]; Day 3, TGFβ2 25 pg/ml, α2-MG 400 μg/ml): + (+-++++, indicates extent of spindle-like elongation) | cataract-like changes: extent of spindle-like elongation ([3]; Day 4, TGFβ2 0 pg/ml, α2-MG 200 μg/ml): − | cataract-like changes: extent of spindle-like elongation ([3]; Day 4, TGFβ2 0 pg/ml, α2-MG 400 μg/ml): − | cataract-like changes: extent of cell loss [3, 4]: † (†-††††, indicates extent of cell loss) | cataract-like changes: extent of spindle-like elongation [3, 4]: + (+-++++, indicates extent of spindle-like elongation) | cataract-like changes: extent of cell loss [3, 5]: † (†-††††, indicates extent of cell loss) | cataract-like changes: extent of spindle-like elongation [3, 5]: + (+-++++, indicates extent of spindle-like elongation) | cataract-like changes: extent of spindle-like elongation ([3]; Day 5, TGFβ2 0 pg/ml, α2-MG 200 μg/ml): − | cataract-like changes: extent of spindle-like elongation ([3]; Day 5, TGFβ2 0 pg/ml, α2-MG 400 μg/ml): − | cataract-like changes: extent of cell loss [3, 6]: † (†-††††, indicates extent of cell loss) | cataract-like changes: extent of spindle-like elongation [3, 6]: − | cataract-like changes: extent of cell loss [3, 7]: † (†-††††, indicates extent of cell loss) | cataract-like changes: extent of spindle-like elongation [3, 7]: − | inhibition of TGFβ-induced changes ([3]; TGFβ2 25 pg/ml, α2-macroglobulin 200 or 400 μg/ml, days 2-5): substantially inhibited | changes in explants cultured without TGFβ ([3]; medium containing α2-macroglobulin 200 or 400 μg/ml, no TGFβ, throughout the culture period): No significant changes
